# Experimental data: patent publication US20140302049A1
# Target: human GPR49 (LGR5), on cells (human) (UniProt O75473)
# Assay: cell-based or functional assay
# Sequence of UniProt O75473 (O75473 22-907 limits assumed): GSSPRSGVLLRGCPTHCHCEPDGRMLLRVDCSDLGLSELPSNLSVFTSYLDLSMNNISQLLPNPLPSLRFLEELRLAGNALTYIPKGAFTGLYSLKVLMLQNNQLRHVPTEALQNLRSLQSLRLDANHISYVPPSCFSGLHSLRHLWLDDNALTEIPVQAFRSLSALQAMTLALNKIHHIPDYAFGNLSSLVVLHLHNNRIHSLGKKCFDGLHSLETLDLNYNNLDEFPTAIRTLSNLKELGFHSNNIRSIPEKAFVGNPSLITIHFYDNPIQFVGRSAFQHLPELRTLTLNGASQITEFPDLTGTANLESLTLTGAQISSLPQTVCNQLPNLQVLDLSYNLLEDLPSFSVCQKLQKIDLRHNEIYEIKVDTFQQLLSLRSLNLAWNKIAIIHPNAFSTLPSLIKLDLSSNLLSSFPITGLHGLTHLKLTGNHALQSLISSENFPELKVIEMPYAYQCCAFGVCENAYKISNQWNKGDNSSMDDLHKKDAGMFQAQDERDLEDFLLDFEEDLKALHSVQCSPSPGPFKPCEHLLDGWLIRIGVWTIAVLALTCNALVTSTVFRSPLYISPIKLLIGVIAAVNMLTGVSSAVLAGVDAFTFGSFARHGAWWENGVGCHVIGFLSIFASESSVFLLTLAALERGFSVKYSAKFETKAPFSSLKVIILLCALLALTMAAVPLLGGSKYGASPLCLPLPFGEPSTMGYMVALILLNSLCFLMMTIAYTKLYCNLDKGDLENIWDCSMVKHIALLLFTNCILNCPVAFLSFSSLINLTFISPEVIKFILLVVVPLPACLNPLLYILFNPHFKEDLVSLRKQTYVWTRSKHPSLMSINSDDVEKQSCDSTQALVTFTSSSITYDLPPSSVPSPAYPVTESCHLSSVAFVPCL
substance,measurement,value
R-spondin 1 (ligand),increase in proliferation of GPR49-3T3 clone 28,4 fold
